Source: publication PMC4260089 (The Plant Journal, 2014)

T1: SERK3^250–615 (entire cytoplasmic portion, JM–KD–CT) (Arabidopsis thaliana), Q94F62
T1 chain: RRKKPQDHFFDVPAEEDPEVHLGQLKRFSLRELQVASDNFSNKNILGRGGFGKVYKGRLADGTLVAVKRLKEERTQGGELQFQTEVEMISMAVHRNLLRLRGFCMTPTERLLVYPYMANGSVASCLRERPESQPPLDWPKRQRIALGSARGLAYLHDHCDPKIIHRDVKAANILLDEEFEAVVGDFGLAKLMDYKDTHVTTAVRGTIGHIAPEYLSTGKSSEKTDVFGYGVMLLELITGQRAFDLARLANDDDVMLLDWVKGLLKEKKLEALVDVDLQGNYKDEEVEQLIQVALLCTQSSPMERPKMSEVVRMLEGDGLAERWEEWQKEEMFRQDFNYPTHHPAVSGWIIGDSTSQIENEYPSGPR


Assays:
SEC = molecular target: the molecule itself; assay: SEC
[1] = molecular target: T1, SERK3^250–615 (entire cytoplasmic …); assay: SEC; conditions: remark: other sources report otherwise

Row | Binder | stoichiometry N (SEC) | stoichiometry N [1]
1 | SERK2^281–628 (cytoplasmic portion, JM–KD–CT) (domain or fragment, Arabidopsis thaliana, UniProt Q9XIC7 281-628, looked up) EDPEVHLGQLKRFSLRELQVATDSFSNKNILGRGGFGKVYKGRLADGTLVAVKRLKEERTPGGELQFQTEVEMISMAVHRNLLRLRGFCMTPTERLLVYPYMANGSVASCLRERPPSQLPLAWSIRQQIALGSARGLSYLHDHCDPKIIHRDVKAANILLDEEFEAVVGDFGLARLMDYKDTHVTTAVRGTIGHIAPEYLSTGKSSEKTDVFGYGIMLLELITGQRAFDLARLANDDDVMLLDWVKGLLKEKKLEMLVDPDLQSNYTEAEVEQLIQVALLCTQSSPMERPKMSEVVRMLEGDGLAEKWDEWQKVEVLRQEVELSSHPTSDWILDSTDNLHAMELSGPR | 2 | –
2 | SERK3^250–615 (entire cytoplasmic portion, JM–KD–CT), Q94F62 250-615 (domain or fragment) RRKKPQDHFFDVPAEEDPEVHLGQLKRFSLRELQVASDNFSNKNILGRGGFGKVYKGRLADGTLVAVKRLKEERTQGGELQFQTEVEMISMAVHRNLLRLRGFCMTPTERLLVYPYMANGSVASCLRERPESQPPLDWPKRQRIALGSARGLAYLHDHCDPKIIHRDVKAANILLDEEFEAVVGDFGLAKLMDYKDTHVTTAVRGTIGHIAPEYLSTGKSSEKTDVFGYGVMLLELITGQRAFDLARLANDDDVMLLDWVKGLLKEKKLEALVDVDLQGNYKDEEVEQLIQVALLCTQSSPMERPKMSEVVRMLEGDGLAERWEEWQKEEMFRQDFNYPTHHPAVSGWIIGDSTSQIENEYPSGPR | – | 2
